Reference: paper PMC4422613, “The Inner Nuclear Membrane Protein Nemp1 Is a New Type of RanGTP-Binding Protein in Eukaryotes” (PLoS ONE, 2015)

B1: GST-Mm_Bt (domain or fragment)
chain: PVPPRLLTEEEYRIQGEVETQKALQELREFCNSPECSAWKTISRIQSPKRFADFVEGSFHLTPNEVSVHEQEYGLGSIFTQDEELSSEEEGSEYPTFTQNNFLT
B2: recombinant Mm_Bt (domain or fragment)
chain: PVPPRLLTEEEYRIQGEVETQKALQELREFCNSPECSAWKTISRIQSPKRFADFVEGSFHLTPNEVSVHEQEYGLGSIFTQDEELSSEEEGSEYPTFTQNNFLT
notes: source: recombinant

Key:
[1] = target: recombinant Myc-Mm_RanQ69L(GTP) (Mus musculus, UniProt P62827 1-216, Q69L); test: pull-down; purified GST-Mm_Bt (2.8 μg) on glutathione-Sepharose beads incubated with purified Myc-RanQ69L (5 μg) loaded with 2 mM GTP, binding buffer, 4 °C, 2 h; settings: both partners purified
GST-Mm_RanQ69L = GST-Mm_RanQ69L (Mus musculus, UniProt P62827 1-216, Q69L); test: pull-down; competition: 0.1, 1, 10 μg recombinant Mm_Bt added to 10 μg GST-RanQ69L on glutathione beads in embryo lysate holding FLAG-importin β; read-out is the importin β pulled down; settings: both partners purified

Binder | binding result [1] | binding result (GST-Mm_RanQ69L)
B1 | binds | –
B2 | – | binds
